The values below come from US20100261620A1 (published 2010).

The target of the experiment is IL-13 (Homo sapiens (Human), UniProt P35225 35-146, limits assumed). As to the kind of experiment: Biacore. Background: SPR reads the build-up and loss of mass on a sensor chip optically.
Chain of IL-13 (P35225 35-146 limits assumed): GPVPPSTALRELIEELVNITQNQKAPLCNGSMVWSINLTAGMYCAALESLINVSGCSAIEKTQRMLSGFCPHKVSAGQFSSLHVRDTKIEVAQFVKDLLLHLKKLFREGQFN

B1: M453 (antibody, V domains shown)
VH: QVTLKESGPVLVKPTETLTLTCTVSGFSLSTYGMGVGWIRQPPGKALEWLAHIWWDDVKRYNPALKSRLTISKDTSKSQVVLTMTNMDPVDTATYYCARMGSDYDVWFDYWGQGTLVTVSS
VL: EIVLTQSPATLSLSPGERATLSCRASKSISKYLAWYQQKPGQAPRLLIYSGSTLQSGIPARFSGSGSGTDFTLTISSLEPEDFAVYYCQQHDWGPYTFGQGTKLEIK
notes: anti-IL-13, human IgG1
Turning to B1, binding was put at a Kd of 44 pM; the koff (in general, the rate constant with which the complex falls apart) is 4.7e-05 s⁻¹; the kon (as a rule, the second-order rate constant of association) came out at 1.06e+06 M⁻¹ s⁻¹.

B2: M443 (antibody, V domains shown)
VH: QVTLKESGPVLVKPTETLTLTCTVSGFSLSTYGMGVGWIRQPPGKALEWLAHIWWDDVKRYNPALKSRLTISKDTSKSQVVLTMTNMDPVDTATYYCARMGSDYDVWFDYWGQGTLVTVSS
VL: EIVLTQSPATLSLSPGERATLSCRASKSISKYLAWYQQKPGQAPRLLIYSGSTLQSGIPARFSGSGSGTDFTLTISSLEPEDFAVYYCQQHSWGPYTFGQGTKLEIK
notes: anti-IL-13, human IgG1
With B2, the equilibrium dissociation constant (Kd) (commonly the free concentration of one partner at which half of the binding sites on the other are occupied at equilibrium, for simple one-to-one binding) was 88 pM; the koff stood at 7.8e-05 s⁻¹; the kon worked out at 880000 M⁻¹ s⁻¹.

B3: H2L6 HFS variant (antibody, V domains shown)
VH: QVTLKESGPVLVKPTETLTLTCTVSGFSLSTYGMGVGWIRQPPGKALEWLAHIWWDDVKRYNPALKSRLTISKDTSKSQVVLTMTNMDPVDTATYYCARMGSDYDVWFDYWGQGTLVTVSS
VL: EIVLTQSPATLSLSPGERATLSCRASKSISKYLAWYQQKPGQAPRLLIYSGSTLQSGIPARFSGSGSGTDFTLTISSLEPEDFAVYYCQQHNEYPYTFGQGTKLEIK
notes: IgG1; also called IL13-62
On to B3, for which the affinity, expressed as Kd, was 754 pM; the koff stood at 0.000944 s⁻¹; the on-rate constant (kon) worked out at 1.25e+06 M⁻¹ s⁻¹.

B4: M448 (antibody, V domains shown)
VH: QVTLKESGPVLVKPTETLTLTCTVSGFSLSTYGMGVGWIRQPPGKALEWLAHIWWDDVKRYNPALKSRLTISKDTSKSQVVLTMTNMDPVDTATYYCARMGSDYDVWFDYWGQGTLVTVSS
VL: EIVLTQSPATLSLSPGERATLSCRASKSISKYLAWYQQKPGQAPRLLIYSGSTLQSGIPARFSGSGSGTDFTLTISSLEPEDFAVYYCQQHSHGPYTFGQGTKLEIK
notes: anti-IL-13, human IgG1
Take B4: the affinity, expressed as Kd, was 92 pM; the koff is 0.000127 s⁻¹; the kon was determined as 1.39e+06 M⁻¹ s⁻¹.

B5: M449 (antibody, V domains shown)
VH: QVTLKESGPVLVKPTETLTLTCTVSGFSLSTYGMGVGWIRQPPGKALEWLAHIWWDDVKRYNPALKSRLTISKDTSKSQVVLTMTNMDPVDTATYYCARMGSDYDVWFDYWGQGTLVTVSS
VL: EIVLTQSPATLSLSPGERATLSCRASKSISKYLAWYQQKPGQAPRLLIYSGSTLQSGIPARFSGSGSGTDFTLTISSLEPEDFAVYYCQQHESGPYTFGQGTKLEIK
notes: anti-IL-13, human IgG1
B5 had a Kd of 89 pM, a koff of 9e-05 s⁻¹ and a kon of 1.02e+06 M⁻¹ s⁻¹.

B6: M457 (antibody, V domains shown)
VH: QVTLKESGPVLVKPTETLTLTCTVSGFSLSTYGMGVGWIRQPPGKALEWLAHIWWDDVKRYNPALKSRLTISKDTSKSQVVLTMTNMDPVDTATYYCARMGSDYDVWFDYWGQGTLVTVSS
VL: EIVLTQSPATLSLSPGERATLSCRASKSISKYLAWYQQKPGQAPRLLIYSGSTLQSGIPARFSGSGSGTDFTLTISSLEPEDFAVYYCQQHDYAPYTFGQGTKLEIK
notes: anti-IL-13, human IgG1
In turn, B6 gave a Kd of 193 pM, a koff of 0.000214 s⁻¹ and a kon of 1.11e+06 M⁻¹ s⁻¹.

B7: M451 (antibody, V domains shown)
VH: QVTLKESGPVLVKPTETLTLTCTVSGFSLSTYGMGVGWIRQPPGKALEWLAHIWWDDVKRYNPALKSRLTISKDTSKSQVVLTMTNMDPVDTATYYCARMGSDYDVWFDYWGQGTLVTVSS
VL: EIVLTQSPATLSLSPGERATLSCRASKSISKYLAWYQQKPGQAPRLLIYSGSTLQSGIPARFSGSGSGTDFTLTISSLEPEDFAVYYCQQPLDVPYTFGQGTKLEIK
notes: anti-IL-13, human IgG1
The molecule B7 gave a Kd of 177 pM, a koff of 0.000333 s⁻¹ and an on-rate (kon) of 1.88e+06 M⁻¹ s⁻¹.

B8: M445 (antibody, V domains shown)
VH: QVTLKESGPVLVKPTETLTLTCTVSGFSLSTYGMGVGWIRQPPGKALEWLAHIWWDDVKRYNPALKSRLTISKDTSKSQVVLTMTNMDPVDTATYYCARMGSDYDVWFDYWGQGTLVTVSS
VL: EIVLTQSPATLSLSPGERATLSCRASKSISKYLAWYQQKPGQAPRLLIYSGSTLQSGIPARFSGSGSGTDFTLTISSLEPEDFAVYYCQQHLLGPYTFGQGTKLEIK
notes: anti-IL-13, human IgG1
In the case of B8, binding was characterised by a dissociation constant (Kd) of 262 pM, the koff is 0.000291 s⁻¹ and the kon is 1.11e+06 M⁻¹ s⁻¹.

B9: M444 (antibody, V domains shown)
VH: QVTLKESGPVLVKPTETLTLTCTVSGFSLSTYGMGVGWIRQPPGKALEWLAHIWWDDVKRYNPALKSRLTISKDTSKSQVVLTMTNMDPVDTATYYCARMGSDYDVWFDYWGQGTLVTVSS
VL: EIVLTQSPATLSLSPGERATLSCRASKSISKYLAWYQQKPGQAPRLLIYSGSTLQSGIPARFSGSGSGTDFTLTISSLEPEDFAVYYCQQHVWGPYTFGQGTKLEIK
notes: anti-IL-13, human IgG1
Molecule B9 showed a Kd of 184 pM, a koff of 0.00022 s⁻¹ and a kon of 1.2e+06 M⁻¹ s⁻¹.

B10: M446 (antibody, V domains shown)
VH: QVTLKESGPVLVKPTETLTLTCTVSGFSLSTYGMGVGWIRQPPGKALEWLAHIWWDDVKRYNPALKSRLTISKDTSKSQVVLTMTNMDPVDTATYYCARMGSDYDVWFDYWGQGTLVTVSS
VL: EIVLTQSPATLSLSPGERATLSCRASKSISKYLAWYQQKPGQAPRLLIYSGSTLQSGIPARFSGSGSGTDFTLTISSLEPEDFAVYYCQQHVGGPYTFGQGTKLEIK
notes: anti-IL-13, human IgG1
B10 yielded a Kd of 345 pM, a koff of 0.000465 s⁻¹ and a kon of 1.35e+06 M⁻¹ s⁻¹.

B11: M455 (antibody, V domains shown)
VH: QVTLKESGPVLVKPTETLTLTCTVSGFSLSTYGMGVGWIRQPPGKALEWLAHIWWDDVKRYNPALKSRLTISKDTSKSQVVLTMTNMDPVDTATYYCARMGSDYDVWFDYWGQGTLVTVSS
VL: EIVLTQSPATLSLSPGERATLSCRASKSISKYLAWYQQKPGQAPRLLIYSGSTLQSGIPARFSGSGSGTDFTLTISSLEPEDFAVYYCQQHNEAPYTFGQGTKLEIK
notes: anti-IL-13, human IgG1
As for B11, binding was put at a Kd of 186 pM, the koff worked out at 0.000303 s⁻¹ and the kon stood at 1.63e+06 M⁻¹ s⁻¹.

B12: M450 (antibody, V domains shown)
VH: QVTLKESGPVLVKPTETLTLTCTVSGFSLSTYGMGVGWIRQPPGKALEWLAHIWWDDVKRYNPALKSRLTISKDTSKSQVVLTMTNMDPVDTATYYCARMGSDYDVWFDYWGQGTLVTVSS
VL: EIVLTQSPATLSLSPGERATLSCRASKSISKYLAWYQQKPGQAPRLLIYSGSTLQSGIPARFSGSGSGTDFTLTISSLEPEDFAVYYCQQHDPGPYTFGQGTKLEIK
notes: anti-IL-13, human IgG1
B12 gave a dissociation constant Kd of 63 pM, a koff of 0.000107 s⁻¹ and a kon of 1.71e+06 M⁻¹ s⁻¹.

B13: M461 (antibody, V domains shown)
VH: QVTLKESGPVLVKPTETLTLTCTVSGFSLSTYGMGVGWIRQPPGKALEWLAHIWWDDVKRYNPALKSRLTISKDTSKSQVVLTMTNMDPVDTATYYCARMGSDYDVWFDYWGQGTLVTVSS
VL: EIVLTQSPATLSLSPGERATLSCRASKSISKYLAWYQQKPGQAPRLLIYSGSTLQSGIPARFSGSGSGTDFTLTISSLEPEDFAVYYCQQHSIGPYTFGQGTKLEIK
notes: anti-IL-13, human IgG1
B13 displayed a Kd of 193 pM, a koff of 0.000257 s⁻¹ and a kon of 1.33e+06 M⁻¹ s⁻¹.

B14: M454 (antibody, V domains shown)
VH: QVTLKESGPVLVKPTETLTLTCTVSGFSLSTYGMGVGWIRQPPGKALEWLAHIWWDDVKRYNPALKSRLTISKDTSKSQVVLTMTNMDPVDTATYYCARMGSDYDVWFDYWGQGTLVTVSS
VL: EIVLTQSPATLSLSPGERATLSCRASKSISKYLAWYQQKPGQAPRLLIYSGSTLQSGIPARFSGSGSGTDFTLTISSLEPEDFAVYYCQQQDYGPYTFGQGTKLEIK
notes: anti-IL-13, human IgG1
In the case of B14, the Kd came to 65 pM, the koff was 7.4e-05 s⁻¹ and the kon was determined as 1.13e+06 M⁻¹ s⁻¹.

B15: M456 (antibody, V domains shown)
VH: QVTLKESGPVLVKPTETLTLTCTVSGFSLSTYGMGVGWIRQPPGKALEWLAHIWWDDVKRYNPALKSRLTISKDTSKSQVVLTMTNMDPVDTATYYCARMGSDYDVWFDYWGQGTLVTVSS
VL: EIVLTQSPATLSLSPGERATLSCRASKSISKYLAWYQQKPGQAPRLLIYSGSTLQSGIPARFSGSGSGTDFTLTISSLEPEDFAVYYCQQHSYGPYTFGQGTKLEIK
notes: anti-IL-13, human IgG1
Molecule B15 came in with a Kd of 148 pM, a koff of 0.000182 s⁻¹ and a kon of 1.24e+06 M⁻¹ s⁻¹.

B16: M459 (antibody, V domains shown)
VH: QVTLKESGPVLVKPTETLTLTCTVSGFSLSTYGMGVGWIRQPPGKALEWLAHIWWDDVKRYNPALKSRLTISKDTSKSQVVLTMTNMDPVDTATYYCARMGSDYDVWFDYWGQGTLVTVSS
VL: EIVLTQSPATLSLSPGERATLSCRASKSISKYLAWYQQKPGQAPRLLIYSGSTLQSGIPARFSGSGSGTDFTLTISSLEPEDFAVYYCQQPLEAPYTFGQGTKLEIK
notes: anti-IL-13, human IgG1
B16 registered a Kd of 356 pM, a koff of 0.000449 s⁻¹ and a kon of 1.26e+06 M⁻¹ s⁻¹.

B17: M452 (antibody, V domains shown)
VH: QVTLKESGPVLVKPTETLTLTCTVSGFSLSTYGMGVGWIRQPPGKALEWLAHIWWDDVKRYNPALKSRLTISKDTSKSQVVLTMTNMDPVDTATYYCARMGSDYDVWFDYWGQGTLVTVSS
VL: EIVLTQSPATLSLSPGERATLSCRASKSISKYLAWYQQKPGQAPRLLIYSGSTLQSGIPARFSGSGSGTDFTLTISSLEPEDFAVYYCQQHLNGPYTFGQGTKLEIK
notes: anti-IL-13, human IgG1
For B17, binding was put at a Kd of 233 pM, the koff was found to be 0.00027 s⁻¹ and the kon came out at 1.16e+06 M⁻¹ s⁻¹.

B18: M447 (antibody, V domains shown)
VH: QVTLKESGPVLVKPTETLTLTCTVSGFSLSTYGMGVGWIRQPPGKALEWLAHIWWDDVKRYNPALKSRLTISKDTSKSQVVLTMTNMDPVDTATYYCARMGSDYDVWFDYWGQGTLVTVSS
VL: EIVLTQSPATLSLSPGERATLSCRASKSISKYLAWYQQKPGQAPRLLIYSGSTLQSGIPARFSGSGSGTDFTLTISSLEPEDFAVYYCQQQDIGPYTFGQGTKLEIK
notes: anti-IL-13, human IgG1
B18 returned a Kd of 55 pM, a koff of 5.4e-05 s⁻¹ and a kon of 980000 M⁻¹ s⁻¹.
